Experimental data: patent US20260043041A1, “HSL PROTEIN, GENE, VECTOR, CELL, COMPOSITION AND USE THEREOF, AND METHOD FOR IMPROVING HERBICIDE RESISTANCE OF CROPS” (CENTRAL CHINA NORMAL UNIVERSITY, priority 2022, published 2026)
Entries after “also recorded” stand apart in the source; their conditions may differ.

B1: OsHSL1_I335F: SEQ ID NO.1 with the isoleucine at site 335 mutated to phenylalanine (protein, listed as Oryza sativa)
chain: MADESWRTPAIVQELAAAGVEEPPSRYVLGEKDRSDELVAAELPEPIPVVDLSRLAGADEAAKLRAALQNWGFFLLTNHGVETSLMDDVLNLAREFFNQPIERKRKFSNLIDGKNFQVEGYGTDRVVTQDQILDWSDRLFLRVEPKEERNLAFWPDHPESFRDVLNEYASRTKRIRDDIVQAMSKLLGLDEDYFFDRLNKAPALARFNYYPPCPRPDLVFGVRPHSDGSLFTILLVDEDVGGLQIQRDGKWYNVQVTPNTLLINLGDTMEVLCNGIFRSPVHRVVTNAERERISLAMFYSVNDEKDIGPAAGLLDENRPARYRKVSVGEFRAGIFGKFSRRERYIDSLKI
B2: OsHSL1_F140H/L204F/F298L/I335A: SEQ ID NO.1 with F140 to histidine, L204 to phenylalanine, F298 to leucine, I335 to alanine (protein)
chain: MADESWRTPAIVQELAAAGVEEPPSRYVLGEKDRSDELVAAELPEPIPVVDLSRLAGADEAAKLRAALQNWGFFLLTNHGVETSLMDDVLNLAREFFNQPIERKRKFSNLIDGKNFQVEGYGTDRVVTQDQILDWSDRLHLRVEPKEERNLAFWPDHPESFRDVLNEYASRTKRIRDDIVQAMSKLLGLDEDYFFDRLNKAPAFARFNYYPPCPRPDLVFGVRPHSDGSLFTILLVDEDVGGLQIQRDGKWYNVQVTPNTLLINLGDTMEVLCNGIFRSPVHRVVTNAERERISLAMLYSVNDEKDIGPAAGLLDENRPARYRKVSVGEFRAGIAGKFSRRERYIDSLKI

Legend:
[1] = target: T1, rice OsHSL1 (SEQ ID NO: 1) mutant OsHSL1_I335F (Oryza sativa, UniProt A0A7G1K9G4, I335F); test: Enzyme kinetic parameters with HPPD inhibitors as substrate (HPLC); format: biochemical; conditions: compared with OsHSL1 wild type
T1 construct: isolated enzyme, HPLC assay
Text: (§1) High Performance Liquid Chromatography (HPLC) was used to test OsHIS1 wild-type protein (the amino acid sequence of OsHIS1 wild-type is shown as SEQ ID NO 2, and the corresponding nucleotide sequence is shown as SEQ ID NO 21), the enzyme kinetic parameters of OsHSL1 wild-type protein and some OsHSL1 mutant proteins with higher reactivity and HPPD inhibitors, and the specific results are shown in Table 9-Table 12. […] Each sample was replicated three times. • e.

[2] = target: T2, rice OsHSL1 (SEQ ID NO: 1) mutant OsHSL1_F140H/L204F/F298L/I335A (Oryza sativa, UniProt A0A7G1K9G4, F140H/F298L/I335A/L204F); test: as above; format: biochemical; conditions: compared with OsHSL1 wild type; close to the OsHIS1 wild type
T2 construct: isolated enzyme, HPLC assay
Text: as §1

[3] = test system: OsHSL1 wild type T1 generation positive rice plants; test: Herbicide resistance test, over-expression in rice (stem-leaf treatment); format: in vivo; conditions: 2 g/mu and 8 g/mu
Experimental: (§2) Successfully overexpressed OsHSL1_F140H/L204F/F298L/I335A mutants and OsHSL1 wild type TO generation tissue culture seedlings were selected, cultivated and harvested, and then sown to offspring population T1 generation rice plants, and positive over-expression rice plants were identified.
(§3) OsHSL1_F140H/L204F/F298L/I335A mutant T1 generation positive rice plants and OsHSL1 wild-type T1 generation positive rice plants at 3 weeks of seedling age were treated with different concentrations of methyl-benquitrione aqueous solution on the Stem leaves, and OsHSL1 wild-type T1 generation positive rice plants as a control. The resistance of mutant OsHSL1_F140H/L204F/F298L/I335A to methyl-benquitrione was tested, and the specific results were shown in FIG. 1.

[4] = test system: OsHSL1_F140H/L204F/F298L/I335A mutant T1 generation positive rice plants; test: as above; format: in vivo; conditions: 2 g/mu and 8 g/mu, after 23 days of treatment
Experimental: as §2, §3

[5] = target: T3, rice OsHSL1 (SEQ ID NO: 1) mutant OsHSL1_L204F/F298L/I335A (Oryza sativa, UniProt A0A7G1K9G4, F298L/I335A/L204F); test: Enzyme kinetic parameters with HPPD inhibitors as substrate (HPLC); format: biochemical
T3 construct: isolated enzyme, HPLC assay; I335A may be a misprint of I335F
T3 sequence (A0A7G1K9G4 1-350 L204F/F298L/I335A): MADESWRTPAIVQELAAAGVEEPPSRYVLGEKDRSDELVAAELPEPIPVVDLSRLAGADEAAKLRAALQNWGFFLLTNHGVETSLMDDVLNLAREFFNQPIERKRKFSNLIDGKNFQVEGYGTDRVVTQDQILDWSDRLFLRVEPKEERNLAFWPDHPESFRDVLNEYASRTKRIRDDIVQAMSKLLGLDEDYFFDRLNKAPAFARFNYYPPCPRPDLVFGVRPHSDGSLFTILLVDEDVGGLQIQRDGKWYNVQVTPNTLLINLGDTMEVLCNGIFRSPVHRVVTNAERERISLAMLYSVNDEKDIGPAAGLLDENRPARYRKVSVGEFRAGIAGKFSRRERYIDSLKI
Text: as §1

[6] = Catalytic activity of HSL proteins on HPPD inhibitors (HPLC, substrate consumption); format: biochemical; conditions: 30° C., 10 h, protein 0.5 mg/mL; for Catalytic efficiency (%) Compound A: substrate Compound A 50 μM; for Catalytic efficiency (%) benzobicyclon technical: substrate benzobicyclon technical 50 μM; for Catalytic efficiency (%) Mesotrione: substrate mesotrione 50 μM; for Catalytic efficiency (%) methyl-benquitrione: substrate methyl-benquitrione 50 μM; for Catalytic efficiency (%) pyraquinate technical: substrate pyraquinate technical 50 μM; for Catalytic efficiency (%) tefuryltrione: substrate tefuryltrione 50 μM; for Catalytic efficiency (%) tembotrione: substrate tembotrione 50 μM
Experimental: (§4) Each sample was replicated three times. • e.
(§5) Control: refers to the addition of inhibitors to the reaction system, but not the addition of enzymes, which is regarded as the substrate surplus when the inhibitor is not catalyzed.
(§6) Sample: in the enzyme reaction system, the same volume and the same concentration (50 μM) of the inhibitor was added, and the catalytic efficiency of the enzyme to the inhibitor was observed.
(§7) Catalytic efficiency=(1−(peak area of substrate in sample)/(peak area of substrate in control))×100%.

[7] = format: biochemical; conditions: for Catalytic efficiency (%) topramezone: substrate topramezone 50 μM, 30° C., 10 h, protein 0.5 mg/mL
Experimental: as §4, §5, §6, §7

[8] = Enzyme kinetic parameter study (HPLC, Michaelis-Menten fit); format: biochemical; conditions: statement on Table 11
Text: as §1

[9] = test system: T1 generation positive rice plants; test: Herbicide resistance test of over-expression in rice (methyl-benquitrione stem-leaf treatment); format: in vivo; conditions: conclusion from FIG. 1
Experimental: as §2, §3
FIG. 1 is a graph showing the sensitivity of OsHSL1_F140H/L204F/F298L/I335A mutant T1 generation positive rice plants and OsHSL1 wild type T1 generation positive rice plants to the HPPD inhibitor methyl-benquitrione.

| Molecule | Catalytic efficiency (%) Compound A [6] | Catalytic efficiency (%) benzobicyclon technical [6] | Catalytic efficiency (%) Mesotrione [6] | Catalytic efficiency (%) methyl-benquitrione [6] | Catalytic efficiency (%) pyraquinate technical [6] | Catalytic efficiency (%) tefuryltrione [6] | Catalytic efficiency (%) tembotrione [6] | Catalytic efficiency (%) topramezone [7] | further results |
| --- | --- | --- | --- | --- | --- | --- | --- | --- | --- |
| Cc1c(C(=O)c2cnn(C)c2O)ccc(S(C)(=O)=O)c1C1=NOCC1 [topramezone] | – | – | – | – | – | – | – | – | catalytic efficiency (in words) [1]: obviously superior |
| Cc1ccccc1-n1c(=O)c2c(C)c(C(=O)C3=C(O)CCCC3=O)ccc2n(C)c1=O [methyl-benquitrione] | – | – | – | – | – | – | – | – | affinity and catalytic efficiency (in words) [2]: better affinity and catalytic efficiency; albinism symptoms ([3]; after 16 days of treatment): almost all have albinism symptoms; albino symptoms ([3]; after 23 days of treatment): albino symptoms become very obvious; sensitivity (plant colour) [4]: basically keep normal green |
| Cc1nn(C)c(O)c1C(=O)c1ccc2c(c1C)c(=O)n(-c1cccc(Cl)c1)c(=O)n2C [pyraquinate technical, pyraquinate] | – | – | – | – | – | – | – | – | affinity and catalytic efficiency (in words) ([5]; compared with OsHIS1 wild type and OsHSL1 wild type): superior; Kcat ([5]; pH 7.0, 30° C., about 20 min): 0.00135 s⁻¹ |
| B1 | 0% | 44% | 15% | 0% | 24% | 98% | 62% | 100% | degradation of topramezone (in words) [7]: can completely degrade topramezone; effect on topramezone degradation versus OsHSL1 wild type (in words) [7]: significantly better effect on topramezone degredation than OsHSL1 wild type; Catalytic efficiency (%) 30 min ([7]; topramezone degradation, reaction time 30 min): 97%; Catalytic efficiency (%) 60 min ([7]; topramezone degradation, reaction time 60 min): 100%; Catalytic efficiency (%) 120 min ([7]; topramezone degradation, reaction time 120 min): 100%; Catalytic efficiency (%) 300 min ([7]; topramezone degradation, reaction time 300 min): 100%; Catalytic efficiency (%) 600 min ([7]; topramezone degradation, reaction time 600 min): 100%; catalytic efficiency to topramezone versus wild type (in words) [8]: obviously superior to that of OsHSL1 wild type |
| B2 | 97% | 100% | 90% | 95% | 40% | 85% | 71% | 4% | resistance of over-expressing rice plants to methyl-benquitrione [9]: can improve the resistance; also recorded: obvious resistance |
